Each sequence was assayed against Hck (UniProt P08631) (assay: phosphorylation enrichment, bacterial display (enrichment ratio); higher = better substrate or ligand; peptides without Tyr show the background).
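Also: 11-residue human phosphosite peptides and single-mutation variants displayed on the E. coli surface, counted by deep sequencing, each peptide's frequency after selection divided by its frequency in the unselected input library; frequency after pTyr selection over input frequency; kinase dosed for 20-30% of maximal phosphorylation in three min.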

Hck, sequence (P08631 whole entry, looked up): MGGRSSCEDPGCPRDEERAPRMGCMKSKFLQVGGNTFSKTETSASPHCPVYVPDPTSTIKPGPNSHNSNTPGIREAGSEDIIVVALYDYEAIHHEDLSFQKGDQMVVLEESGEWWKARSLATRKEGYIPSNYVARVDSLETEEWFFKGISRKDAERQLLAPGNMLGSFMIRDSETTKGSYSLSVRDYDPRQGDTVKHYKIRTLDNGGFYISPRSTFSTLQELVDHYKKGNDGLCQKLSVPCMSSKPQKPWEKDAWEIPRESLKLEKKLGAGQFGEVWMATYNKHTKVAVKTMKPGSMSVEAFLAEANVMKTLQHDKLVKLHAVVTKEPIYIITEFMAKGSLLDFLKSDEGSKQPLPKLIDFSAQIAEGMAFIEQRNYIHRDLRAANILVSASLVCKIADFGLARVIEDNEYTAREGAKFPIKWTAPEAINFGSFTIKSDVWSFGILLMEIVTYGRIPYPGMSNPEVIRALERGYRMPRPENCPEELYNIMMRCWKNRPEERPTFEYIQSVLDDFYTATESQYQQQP

Row | Sequence | phosphorylation enrichment
1 | PKGIRYGQGAG [CSRP3_Y73_G72R] | 0.587
2 | QLQVFYATLDQ [MIPEP_Y579] | 3.38
3 | ALRASYTPSPV [ESS2_Y418_A423V] | 0.458
4 | WDLTDYLMKIL [ACTB_Y188_R183W] | 0.611
5 | FNSLLYQVPTS [CALCOCO2_Y358_P357L] | 6.55
6 | SLFNGYVYSGV [NEIL3_Y71] | 4.49
7 | FARECYSALPQ [SARS2_Y52_G51C_YF] | 2.93
8 | SFPSFYTSHVQ [NEFL_Y443_YF] | 0.548
9 | SYCYRYRCAAQ [SUMF1_Y344_R349Q] | 0.5
10 | TINPIHEHVGY [CHN1_Y143_Y143H] | 0.474
11 | MEKEKYVSYIS [JMJD1C_Y596] | 0.442
12 | QCTSAYLLQPE [NANS_Y188_P189L] | 0.596
13 | KKCTRYIDCDL [ASPA_Y64] | 0.41
14 | HNVPICEGYAL [ACTC1_Y168_Y168C] | 0.916
15 | PKEEPYKMQEK [SLC5A3_Y565_Q566K] | 0.415
16 | LSVISYDLGMF [GBA3_Y174_M172I] | 0.481
17 | ACCLLYHGDVV [TUBA4A_Y319_R320H] | 0.632

Row | Sequence | phosphorylation enrichment
18 | MASISYDYCRV [BST2_Y6_T4I] | 1.02
19 | DDIPLYLKGGV [COX7A2_Y44_E40D] | 0.513
20 | GLVFLYVEKNQ [PRELP_Y156_M157V] | 0.532
21 | NPIGLYSAEIL [LDB3_Y202_T206I] | 1.04
22 | LQLLGDRPVYS [CHST6_Y358_Y358D] | 1.37
23 | DDEVFYSPRSL [OTC_Y317] | 2
24 | CDKEYYSVHNK [MET_Y1235_Y1230C] | 0.788
25 | SSVKPYRVYCD [FGB_Y266] | 0.442
26 | PFSSPYENSLI [EPOR_Y489_N487S_YF] | 1.21
27 | IFLENYNAGTF [CFI_Y421_H418L_YF] | 0.427
28 | LTTPTYGDLNH [TUBB_Y222] | 4.7
29 | NEKNIYRVPLM [BMPR2_Y247] | 1.16
30 | SLLPDYEDEEE [ZNF830_Y159] | 0.673
31 | ISKKRYAGLLF [POLD1_Y809] | 0.519
32 | FIATQYSLRPR [LBR_Y166_YF] | 0.454
33 | GDSVQYNRTTD [MLPH_Y454_P451S] | 0.498

These sequences were tested against Jak2 (UniProt O60674) in the same assay as above.
Jak2, sequence (O60674 whole entry, looked up): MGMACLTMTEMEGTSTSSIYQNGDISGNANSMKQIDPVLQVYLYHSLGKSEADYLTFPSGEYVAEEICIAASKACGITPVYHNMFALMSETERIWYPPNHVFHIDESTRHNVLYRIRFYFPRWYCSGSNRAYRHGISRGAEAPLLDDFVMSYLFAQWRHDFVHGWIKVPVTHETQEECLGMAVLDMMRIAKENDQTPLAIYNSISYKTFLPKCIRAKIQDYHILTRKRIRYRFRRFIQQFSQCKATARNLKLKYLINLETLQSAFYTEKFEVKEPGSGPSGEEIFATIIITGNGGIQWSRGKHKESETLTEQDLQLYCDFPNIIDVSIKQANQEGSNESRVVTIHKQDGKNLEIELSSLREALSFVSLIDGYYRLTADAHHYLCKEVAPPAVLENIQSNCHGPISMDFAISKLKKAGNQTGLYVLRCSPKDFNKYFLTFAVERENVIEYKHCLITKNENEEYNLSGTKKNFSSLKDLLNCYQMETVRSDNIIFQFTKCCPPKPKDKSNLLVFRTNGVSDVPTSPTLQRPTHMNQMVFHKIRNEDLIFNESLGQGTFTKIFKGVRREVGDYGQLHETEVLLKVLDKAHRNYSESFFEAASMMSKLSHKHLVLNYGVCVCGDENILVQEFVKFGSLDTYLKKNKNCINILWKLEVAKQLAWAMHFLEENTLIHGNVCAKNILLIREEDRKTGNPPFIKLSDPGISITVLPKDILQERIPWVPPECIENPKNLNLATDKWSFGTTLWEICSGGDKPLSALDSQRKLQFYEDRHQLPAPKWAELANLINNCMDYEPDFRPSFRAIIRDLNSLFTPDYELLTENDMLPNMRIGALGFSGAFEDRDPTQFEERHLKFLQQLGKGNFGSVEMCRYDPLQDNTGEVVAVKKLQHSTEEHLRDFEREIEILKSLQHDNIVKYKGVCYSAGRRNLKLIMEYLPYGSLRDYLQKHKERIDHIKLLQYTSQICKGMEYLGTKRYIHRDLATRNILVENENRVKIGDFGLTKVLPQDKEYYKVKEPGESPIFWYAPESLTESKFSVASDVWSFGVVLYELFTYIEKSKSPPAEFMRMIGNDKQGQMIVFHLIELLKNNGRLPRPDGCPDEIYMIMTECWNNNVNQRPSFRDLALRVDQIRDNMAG

Row | Sequence | phosphorylation enrichment
34 | PKGIRYGQGAG [CSRP3_Y73_G72R] | 0.521
35 | QLQVFYATLDQ [MIPEP_Y579] | 2.12
36 | ALRASYTPSPV [ESS2_Y418_A423V] | 0.909
37 | WDLTDYLMKIL [ACTB_Y188_R183W] | 1.23
38 | FNSLLYQVPTS [CALCOCO2_Y358_P357L] | 2.1
39 | SLFNGYVYSGV [NEIL3_Y71] | 1.58
40 | FARECYSALPQ [SARS2_Y52_G51C_YF] | 0.761
41 | SFPSFYTSHVQ [NEFL_Y443_YF] | 0.657
42 | SYCYRYRCAAQ [SUMF1_Y344_R349Q] | 0.599
43 | TINPIHEHVGY [CHN1_Y143_Y143H] | 0.864
44 | MEKEKYVSYIS [JMJD1C_Y596] | 0.921
45 | QCTSAYLLQPE [NANS_Y188_P189L] | 1.19
46 | KKCTRYIDCDL [ASPA_Y64] | 0.782
47 | HNVPICEGYAL [ACTC1_Y168_Y168C] | 0.895
48 | PKEEPYKMQEK [SLC5A3_Y565_Q566K] | 0.892
49 | LSVISYDLGMF [GBA3_Y174_M172I] | 1.21
50 | ACCLLYHGDVV [TUBA4A_Y319_R320H] | 0.797

Row | Sequence | phosphorylation enrichment
51 | MASISYDYCRV [BST2_Y6_T4I] | 1.09
52 | DDIPLYLKGGV [COX7A2_Y44_E40D] | 1.02
53 | GLVFLYVEKNQ [PRELP_Y156_M157V] | 1.15
54 | NPIGLYSAEIL [LDB3_Y202_T206I] | 0.876
55 | LQLLGDRPVYS [CHST6_Y358_Y358D] | 2.78
56 | DDEVFYSPRSL [OTC_Y317] | 1.36
57 | CDKEYYSVHNK [MET_Y1235_Y1230C] | 1.32
58 | SSVKPYRVYCD [FGB_Y266] | 0.657
59 | PFSSPYENSLI [EPOR_Y489_N487S_YF] | 0.941
60 | IFLENYNAGTF [CFI_Y421_H418L_YF] | 0.844
61 | LTTPTYGDLNH [TUBB_Y222] | 0.84
62 | NEKNIYRVPLM [BMPR2_Y247] | 0.671
63 | SLLPDYEDEEE [ZNF830_Y159] | 1.01
64 | ISKKRYAGLLF [POLD1_Y809] | 0.658
65 | FIATQYSLRPR [LBR_Y166_YF] | 0.551
66 | GDSVQYNRTTD [MLPH_Y454_P451S] | 0.728

What follows are sequences tested against MERTK (UniProt Q12866) in the same assay as above.
MERTK, sequence (Q12866 whole entry, looked up): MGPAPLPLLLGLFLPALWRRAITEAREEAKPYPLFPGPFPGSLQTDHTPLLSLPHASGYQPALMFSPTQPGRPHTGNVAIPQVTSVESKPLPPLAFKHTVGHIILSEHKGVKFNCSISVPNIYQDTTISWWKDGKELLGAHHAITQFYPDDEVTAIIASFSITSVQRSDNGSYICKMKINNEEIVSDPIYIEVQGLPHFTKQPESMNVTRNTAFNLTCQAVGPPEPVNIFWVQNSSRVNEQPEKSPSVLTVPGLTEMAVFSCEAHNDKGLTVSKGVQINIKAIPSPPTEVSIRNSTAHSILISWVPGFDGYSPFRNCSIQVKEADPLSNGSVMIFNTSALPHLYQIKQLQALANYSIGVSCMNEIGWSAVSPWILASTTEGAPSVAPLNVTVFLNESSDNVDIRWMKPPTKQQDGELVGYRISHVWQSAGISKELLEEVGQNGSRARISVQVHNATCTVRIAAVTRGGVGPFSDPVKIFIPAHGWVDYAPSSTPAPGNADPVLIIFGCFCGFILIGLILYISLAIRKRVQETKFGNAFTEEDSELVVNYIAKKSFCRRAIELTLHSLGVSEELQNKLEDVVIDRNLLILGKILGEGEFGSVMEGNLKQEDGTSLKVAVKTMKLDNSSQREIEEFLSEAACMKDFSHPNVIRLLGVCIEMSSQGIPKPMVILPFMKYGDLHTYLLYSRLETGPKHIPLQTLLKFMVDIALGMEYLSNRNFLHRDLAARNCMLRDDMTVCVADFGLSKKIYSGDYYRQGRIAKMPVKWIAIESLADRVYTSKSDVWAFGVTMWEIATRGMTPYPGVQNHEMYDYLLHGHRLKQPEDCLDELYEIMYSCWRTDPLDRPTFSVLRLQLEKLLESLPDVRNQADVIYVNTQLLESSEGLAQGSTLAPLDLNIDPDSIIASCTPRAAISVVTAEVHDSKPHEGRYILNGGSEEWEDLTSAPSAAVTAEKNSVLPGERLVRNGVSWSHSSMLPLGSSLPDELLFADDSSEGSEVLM

Row | Sequence | phosphorylation enrichment
67 | PKGIRYGQGAG [CSRP3_Y73_G72R] | 0.9
68 | QLQVFYATLDQ [MIPEP_Y579] | 7.63
69 | ALRASYTPSPV [ESS2_Y418_A423V] | 0.435
70 | WDLTDYLMKIL [ACTB_Y188_R183W] | 0.477
71 | FNSLLYQVPTS [CALCOCO2_Y358_P357L] | 12.5
72 | SLFNGYVYSGV [NEIL3_Y71] | 0.929
73 | FARECYSALPQ [SARS2_Y52_G51C_YF] | 1.18
74 | SFPSFYTSHVQ [NEFL_Y443_YF] | 1.23
75 | SYCYRYRCAAQ [SUMF1_Y344_R349Q] | 0.515
76 | TINPIHEHVGY [CHN1_Y143_Y143H] | 0.446
77 | MEKEKYVSYIS [JMJD1C_Y596] | 0.413
78 | QCTSAYLLQPE [NANS_Y188_P189L] | 0.785
79 | KKCTRYIDCDL [ASPA_Y64] | 0.421
80 | HNVPICEGYAL [ACTC1_Y168_Y168C] | 0.505
81 | PKEEPYKMQEK [SLC5A3_Y565_Q566K] | 0.467
82 | LSVISYDLGMF [GBA3_Y174_M172I] | 0.424
83 | ACCLLYHGDVV [TUBA4A_Y319_R320H] | 0.739

Row | Sequence | phosphorylation enrichment
84 | MASISYDYCRV [BST2_Y6_T4I] | 0.75
85 | DDIPLYLKGGV [COX7A2_Y44_E40D] | 0.41
86 | GLVFLYVEKNQ [PRELP_Y156_M157V] | 0.337
87 | NPIGLYSAEIL [LDB3_Y202_T206I] | 6.37
88 | LQLLGDRPVYS [CHST6_Y358_Y358D] | 0.683
89 | DDEVFYSPRSL [OTC_Y317] | 0.592
90 | CDKEYYSVHNK [MET_Y1235_Y1230C] | 0.573
91 | SSVKPYRVYCD [FGB_Y266] | 0.401
92 | PFSSPYENSLI [EPOR_Y489_N487S_YF] | 0.891
93 | IFLENYNAGTF [CFI_Y421_H418L_YF] | 0.428
94 | LTTPTYGDLNH [TUBB_Y222] | 0.836
95 | NEKNIYRVPLM [BMPR2_Y247] | 0.609
96 | SLLPDYEDEEE [ZNF830_Y159] | 0.631
97 | ISKKRYAGLLF [POLD1_Y809] | 0.466
98 | FIATQYSLRPR [LBR_Y166_YF] | 0.506
99 | GDSVQYNRTTD [MLPH_Y454_P451S] | 0.419

The sequences below were run on c-Abl (mouse) in the same assay as above.

Row | Sequence | phosphorylation enrichment
100 | PKGIRYGQGAG [CSRP3_Y73_G72R] | 0.927
101 | QLQVFYATLDQ [MIPEP_Y579] | 2.27
102 | ALRASYTPSPV [ESS2_Y418_A423V] | 0.945
103 | WDLTDYLMKIL [ACTB_Y188_R183W] | 0.894
104 | FNSLLYQVPTS [CALCOCO2_Y358_P357L] | 17.8
105 | SLFNGYVYSGV [NEIL3_Y71] | 0.695
106 | FARECYSALPQ [SARS2_Y52_G51C_YF] | 0.726
107 | SFPSFYTSHVQ [NEFL_Y443_YF] | 0.498
108 | SYCYRYRCAAQ [SUMF1_Y344_R349Q] | 0.471
109 | TINPIHEHVGY [CHN1_Y143_Y143H] | 0.57
110 | MEKEKYVSYIS [JMJD1C_Y596] | 0.629
111 | QCTSAYLLQPE [NANS_Y188_P189L] | 1.24
112 | KKCTRYIDCDL [ASPA_Y64] | 0.757
113 | HNVPICEGYAL [ACTC1_Y168_Y168C] | 0.652
114 | PKEEPYKMQEK [SLC5A3_Y565_Q566K] | 0.969
115 | LSVISYDLGMF [GBA3_Y174_M172I] | 0.961
116 | ACCLLYHGDVV [TUBA4A_Y319_R320H] | 0.69

Row | Sequence | phosphorylation enrichment
117 | MASISYDYCRV [BST2_Y6_T4I] | 0.708
118 | DDIPLYLKGGV [COX7A2_Y44_E40D] | 0.673
119 | GLVFLYVEKNQ [PRELP_Y156_M157V] | 0.759
120 | NPIGLYSAEIL [LDB3_Y202_T206I] | 0.568
121 | LQLLGDRPVYS [CHST6_Y358_Y358D] | 1.3
122 | DDEVFYSPRSL [OTC_Y317] | 1.22
123 | CDKEYYSVHNK [MET_Y1235_Y1230C] | 0.949
124 | SSVKPYRVYCD [FGB_Y266] | 0.52
125 | PFSSPYENSLI [EPOR_Y489_N487S_YF] | 0.705
126 | IFLENYNAGTF [CFI_Y421_H418L_YF] | 0.542
127 | LTTPTYGDLNH [TUBB_Y222] | 0.702
128 | NEKNIYRVPLM [BMPR2_Y247] | 31.2
129 | SLLPDYEDEEE [ZNF830_Y159] | 0.647
130 | ISKKRYAGLLF [POLD1_Y809] | 0.52
131 | FIATQYSLRPR [LBR_Y166_YF] | 0.525
132 | GDSVQYNRTTD [MLPH_Y454_P451S] | 0.548
